Positions count from the first letter of the chain named.
B1: nanobody H2 (VHH)
VHH: QVQLQESGGGSVQAGGSLRLSCTTSRRTRNTHAMGWFRQAPGKEREFVAAISWIDSSTYYADSVKGRFTMSGGNARNTVYLQMNSLEPEDTAVYYCAAGSVVAGFWEEVGYDYWGQGTQVTVSS
notes: alpaca, immunised with Pf12-Pf41 complex; Pf12-specific (D1 domain); source: E. coli WK6, periplasmic extract, purified (HisTrap, SEC)
B2: octa-histidine tagged Pf12 D1D2 (residues 28-304) (domain or fragment)
chain: NLTCDFNDVYKLEFHPNQQTSVTKLCNLTPNVLEKVTIKCGSDKLNYNLYPPTCFEEVYASRNMMHLKKIKEFVIGSSMFMRRSLTPNKINEVSFRIPPNMMPEKPIYCFCENKKTITINGSNGNPSSKKDIINRGIVEIIIPSLNEKVKGCDFTTSESTIFSKGYSINEISNKSSNNQQDIVCTVKAHANDLIGFKCPSNYSVEPHDCFVSAFNLSGKNENLENKLKLTNIIMDHYNNTFYSRLPSLISDNWKFFCVCSKDNEKKLVFTVEASISS
notes: Pf12, Plasmodium falciparum 6-cysteine protein, residues N28-S304 (domains D1 and D2); TEV-cleavable tag left on; loaded on NTA sensors; also called tagged wildtype Pf12; source: Spodoptera frugiperda 21 cells, secreted into growth media, purified as tagged protein (Ni-IMAC, SEC); not shown: His8, N-terminal, kept

Assays:
Settings in all cases: both partners purified
[1] = target: T1, Pf12 D2 (residues E174-S304) (Plasmodium falciparum, UniProt C6KSX0); assay: BLI; Octet RED96e; nanobodies loaded on NTA sensors; untagged Pf12 or Pf41 (6-200 nM) or their domains in solution; PBS pH 7.4, 0.1% BSA, 0.05% TWEEN-20, 25°C; global 1:1 fit
T1 construct: Pf12, Plasmodium falciparum, C-terminal 6-cys domain D2, residues E174-S304; also called Pf12 D2 domain; source: Spodoptera frugiperda 21 cells, purified by the same protocol as Pf12 D1D2; not shown: His8, N-terminal, cleaved

[2] = target: T2, Pf41 D1D2 (residues 21-368), untagged (Plasmodium falciparum, UniProt Q8I1Y0); assay: as above
T2 construct: Pf41, Plasmodium falciparum 6-cysteine protein, residues K21-S368 (D1 with the inserted-domain-like region ID, and D2); lacks the signal peptide and ten C-terminal residues; After TEV cleavage three residues, GAS, remain at the N-terminus as cloning artefacts; N-glycosylation sites kept; treated with PNGase F before crystallisation; also called Pf41 wildtype; source: Spodoptera frugiperda 21 …

[3] = target: T3, Pf12 D1D2 (residues 28-304), untagged (Plasmodium falciparum, UniProt C6KSX0); assay: as above
T3 construct: Pf12, Plasmodium falciparum 6-cysteine protein, residues N28-S304 (domains D1 and D2); lacks the signal peptide and the GPI-anchor site; After TEV cleavage three residues, GAS, remain at the N-terminus as cloning artefacts; N-glycosylation sites kept; treated with PNGase F before crystallisation; also called Pf12 wildtype; source: Spodoptera frugiperda 21 cells, secreted into growth media, …

[4] = target: T4, Pf12 D1 (residues N28-L172) (Plasmodium falciparum, UniProt C6KSX0); assay: as above
T4 construct: Pf12, Plasmodium falciparum, N-terminal 6-cys domain D1, residues N28-L172; also called Pf12 D1 domain; source: Spodoptera frugiperda 21 cells, purified by the same protocol as Pf12 D1D2; not shown: His8, N-terminal, cleaved

Pf41 D1D2 N339A = target: T5, Pf41 D1D2 N339A (Plasmodium falciparum, UniProt Q8I1Y0 21-368, N339A); assay: BLI; Octet RED96e; octa-histidine tagged Pf12 loaded on NTA sensors; untagged Pf41 wildtype or mutant 31-1000 nM; PBS pH 7.4, 0.1% BSA, 0.05% TWEEN-20, 25°C; read-out relative maximum response against wildtype
T5 construct: Pf41, Plasmodium falciparum, residues K21-S368 (D1D2); source: Spodoptera frugiperda 21 cells, purified (Ni-IMAC, TEV cleavage, SEC); not shown: His8, N-terminal, cleaved
T5 sequence: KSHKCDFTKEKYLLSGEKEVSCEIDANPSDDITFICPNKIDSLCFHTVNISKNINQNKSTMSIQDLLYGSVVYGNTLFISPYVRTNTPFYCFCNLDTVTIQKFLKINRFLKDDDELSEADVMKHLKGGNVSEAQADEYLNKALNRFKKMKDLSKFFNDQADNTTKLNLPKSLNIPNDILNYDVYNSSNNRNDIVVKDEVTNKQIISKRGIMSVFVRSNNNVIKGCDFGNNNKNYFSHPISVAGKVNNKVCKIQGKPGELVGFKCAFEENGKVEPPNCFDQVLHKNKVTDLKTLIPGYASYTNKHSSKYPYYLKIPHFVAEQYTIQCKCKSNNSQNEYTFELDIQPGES

[5] = target: T6, Pf41 D1D2 (residues 21-368), untagged (Plasmodium falciparum, UniProt Q8I1Y0 21-368); assay: as above
T6 construct: Pf41, Plasmodium falciparum 6-cysteine protein, residues K21-S368 (D1 with the inserted-domain-like region ID, and D2); lacks the signal peptide and ten C-terminal residues; After TEV cleavage three residues, GAS, remain at the N-terminus as cloning artefacts; N-glycosylation sites kept; treated with PNGase F before crystallisation; also called Pf41 wildtype; source: Spodoptera frugiperda 21 …
T6 sequence (looked up): T5 sequence with A319N

Pf41 D1D2 E340A = target: T7, Pf41 D1D2 E340A (Plasmodium falciparum, UniProt Q8I1Y0 21-368, E340A); assay: as above
T7 construct: Pf41, Plasmodium falciparum, residues K21-S368 (D1D2); source: Spodoptera frugiperda 21 cells, purified (Ni-IMAC, TEV cleavage, SEC); not shown: His8, N-terminal, cleaved
T7 sequence: T5 sequence with A319N, E320A

Pf41 D1D2 E367A = target: T8, Pf41 D1D2 E367A (Plasmodium falciparum, UniProt Q8I1Y0 21-368, E367A); assay: as above
T8 construct: Pf41, Plasmodium falciparum, residues K21-S368 (D1D2); source: Spodoptera frugiperda 21 cells, purified (Ni-IMAC, TEV cleavage, SEC); not shown: His8, N-terminal, cleaved
T8 sequence: T5 sequence with A319N, E347A

Pf41 D1D2 F166L = target: T9, Pf41 D1D2 F166L (Plasmodium falciparum, UniProt Q8I1Y0 21-368, F166 L); assay: as above
T9 construct: Pf41, Plasmodium falciparum, residues K21-S368 (D1D2); source: Spodoptera frugiperda 21 cells, purified (Ni-IMAC, TEV cleavage, SEC); not shown: His8, N-terminal, cleaved
T9 sequence: T5 sequence with F146L, A319N

Pf41 D1D2 H336A = target: T10, Pf41 D1D2 H336A (Plasmodium falciparum, UniProt Q8I1Y0 21-368, H336 to alanine); assay: as above
T10 construct: Pf41, Plasmodium falciparum, residues K21-S368 (D1D2); source: Spodoptera frugiperda 21 cells, purified (Ni-IMAC, TEV cleavage, SEC); not shown: His8, N-terminal, cleaved
T10 sequence: T5 sequence with H316A, A319N

T2 sequence (Q8I1Y0 21-368): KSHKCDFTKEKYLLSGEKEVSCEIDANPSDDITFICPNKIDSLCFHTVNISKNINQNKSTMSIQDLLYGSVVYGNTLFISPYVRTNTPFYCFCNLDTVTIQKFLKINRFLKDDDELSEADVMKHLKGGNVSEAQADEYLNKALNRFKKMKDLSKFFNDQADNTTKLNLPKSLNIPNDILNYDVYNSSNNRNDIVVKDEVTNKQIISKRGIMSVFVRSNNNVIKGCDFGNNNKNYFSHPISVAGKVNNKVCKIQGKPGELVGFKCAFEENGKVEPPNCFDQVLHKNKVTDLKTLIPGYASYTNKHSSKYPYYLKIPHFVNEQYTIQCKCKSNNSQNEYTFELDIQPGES

Binder	binding result [1]	binding result [2]	binding result [3]	binding result [4]	binding result (Pf41 D1D2 N339A)	binding result [5]	binding result (Pf41 D1D2 E340A)	binding result (Pf41 D1D2 E367A)	binding result (Pf41 D1D2 F166L)	binding result (Pf41 D1D2 H336A)
B1	no binding	no binding	binds	binds						
B2					binds	binds	binds	binds	binds	binds

— publication PMC8930183, “Structure of the Pf12 and Pf41 heterodimeric complex of Plasmodium falciparum 6-cysteine proteins” (FEMS Microbes, 2022)
